Our source for the binding result and Kd values is PMC4195821 (The Journal of Cell Biology, 2014).

One test deals with T1, GST-Bem1p (yeast, UniProt P29366 1-551).
T1 sequence (looked up): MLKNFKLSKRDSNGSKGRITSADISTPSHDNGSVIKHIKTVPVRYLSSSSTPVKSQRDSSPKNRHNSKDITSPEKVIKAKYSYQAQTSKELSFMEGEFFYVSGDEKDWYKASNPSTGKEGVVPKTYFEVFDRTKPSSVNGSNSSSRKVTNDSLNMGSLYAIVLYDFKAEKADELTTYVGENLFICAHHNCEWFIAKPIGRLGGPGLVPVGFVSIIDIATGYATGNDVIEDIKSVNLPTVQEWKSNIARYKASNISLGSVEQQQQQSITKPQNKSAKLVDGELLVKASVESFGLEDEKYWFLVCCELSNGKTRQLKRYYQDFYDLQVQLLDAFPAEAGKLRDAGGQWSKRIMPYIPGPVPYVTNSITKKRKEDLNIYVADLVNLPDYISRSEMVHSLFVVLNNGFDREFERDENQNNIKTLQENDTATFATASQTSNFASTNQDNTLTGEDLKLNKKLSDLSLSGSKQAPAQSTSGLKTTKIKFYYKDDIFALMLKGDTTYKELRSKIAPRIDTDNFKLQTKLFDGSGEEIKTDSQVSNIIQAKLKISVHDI
As to the kind of experiment: pull-down.

Another test deals with GST-Exo70p (yeast, UniProt P19658 1-623). Nature of the test: pull-down.
GST-Exo70p, sequence (P19658 whole entry): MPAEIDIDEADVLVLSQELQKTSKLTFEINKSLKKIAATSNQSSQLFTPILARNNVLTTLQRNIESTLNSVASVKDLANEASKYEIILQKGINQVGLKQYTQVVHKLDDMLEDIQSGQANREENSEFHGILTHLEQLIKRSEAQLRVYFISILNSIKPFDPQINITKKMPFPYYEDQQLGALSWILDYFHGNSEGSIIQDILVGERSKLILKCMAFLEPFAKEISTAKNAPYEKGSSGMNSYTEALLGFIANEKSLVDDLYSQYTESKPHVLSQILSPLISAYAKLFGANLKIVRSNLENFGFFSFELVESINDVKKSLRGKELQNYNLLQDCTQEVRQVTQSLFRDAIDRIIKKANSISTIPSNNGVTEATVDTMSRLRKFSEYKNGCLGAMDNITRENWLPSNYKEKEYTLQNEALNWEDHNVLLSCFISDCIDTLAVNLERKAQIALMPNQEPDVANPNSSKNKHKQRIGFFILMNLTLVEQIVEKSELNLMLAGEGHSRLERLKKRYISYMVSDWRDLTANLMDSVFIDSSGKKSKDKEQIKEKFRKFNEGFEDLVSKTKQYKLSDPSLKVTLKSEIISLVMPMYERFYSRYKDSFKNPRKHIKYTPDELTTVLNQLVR

B1: His6-MBP-Cdc24^781-854p (domain or fragment, yeast, UniProt P11433 781-854, looked up)
chain: FTLLVEKVWNFDDLIMAINSKISNTHNNNISPITKIKYQDEDGDFVVLGSDEDWNVAKEMLAENNEKFLNIRLY
In the case of B1, in the test with GST-Bem1p, the binding result is reported as “binds”.

B2: Bem1p-His6 (natural protein, yeast, UniProt P29366 1-551, looked up)
chain: MLKNFKLSKRDSNGSKGRITSADISTPSHDNGSVIKHIKTVPVRYLSSSSTPVKSQRDSSPKNRHNSKDITSPEKVIKAKYSYQAQTSKELSFMEGEFFYVSGDEKDWYKASNPSTGKEGVVPKTYFEVFDRTKPSSVNGSNSSSRKVTNDSLNMGSLYAIVLYDFKAEKADELTTYVGENLFICAHHNCEWFIAKPIGRLGGPGLVPVGFVSIIDIATGYATGNDVIEDIKSVNLPTVQEWKSNIARYKASNISLGSVEQQQQQSITKPQNKSAKLVDGELLVKASVESFGLEDEKYWFLVCCELSNGKTRQLKRYYQDFYDLQVQLLDAFPAEAGKLRDAGGQWSKRIMPYIPGPVPYVTNSITKKRKEDLNIYVADLVNLPDYISRSEMVHSLFVVLNNGFDREFERDENQNNIKTLQENDTATFATASQTSNFASTNQDNTLTGEDLKLNKKLSDLSLSGSKQAPAQSTSGLKTTKIKFYYKDDIFALMLKGDTTYKELRSKIAPRIDTDNFKLQTKLFDGSGEEIKTDSQVSNIIQAKLKISVHDI
In turn, B2 displayed a Kd in the test with GST-Exo70p of about 260 nM.

A word on the Kd: it is the concentration at which binding is half-saturated.
